# Source: patent US11541133B2, “Treatment of cancer cells overexpressing somatostatin receptors using ocreotide derivatives chelated to radioisotopes” (RADIOMEDIX INC., priority 2017, dated 2023)
# Key:
# [1] = Biodistribution in non-tumor bearing CD-1 mice at 4 h post-injection (FIGS. 12-13); conditions: female, CD-1, mouse, in vivo, total radioactivity
# Method: FIG. 12 is a bar graph 1200 showing the biodistribution (% ID/g)(y-axis) for various organs (x-axis). The biodistribution of ^203Pb-TCMCTATE and ^203Pb-DOTAMTATE is shown for non-tumor bearing mice done at 4 h post-injection. The biodistribution studies of ^203Pb-TCMCTATE and ^203Pb-DOTAMTATE are completed in non-tumor bearing mice (CD-1 mice, Female, 20 g wt. 4-5 weeks) at 4 h post-injection of the cancer targeting compositions.
# In comparison, FIG. 13 is a graph 1300 (similar to the graph of FIG. 12), except that the biodistribution study is of ^203Pb-acetate (a lead radioisotope without a chelator or targeting moiety) in non-tumor bearing mice done at 4 h post-injection. A higher accumulation of isotope is observed in blood, kidney, liver and lung compared to the chelated radioisotopes of FIG. 12. The biodistribution studies of the ^203Pb-acetate indicate retention of the isotope in bone marrow, blood and liver after 4 h post-injection.
# [2] = ^203Pb-DOTAMTATE biodistribution in athymic nude mice (FIG. 16); format: in vivo; conditions: female athymic nude mice, 10 μCi iv, 4, 24 and 48 hours
# Method: FIG. 16 is a bar graph 1600 showing the biodistribution results (% ID/g) of ^203Pb-DOTAMTATE in various organs (y-axis). The biodistribution data are acquired at 4 h, 24 h, and 48 h post-injection. […] There is also accumulation of the composition observed in kidneys and bladder due elimination of the composition through renal clearance. As may be seen from these figures, the composition is washed out from all measured organs over time in non-tumor bearing mice.
# Female athymic nude mice (˜20 g) are injected with a single dose of ^203Pb-DOTAMTATE. Specifically, 10 μCi of ^203Pb-DOTAMTATE is diluted in PBS and 100 μl is administered to the mice via intravenous injection. The animals are sacrificed at predetermined time points of 4 hr, 24 hours and 48 hours post drug injection. Tissues are collected from each animal and evaluated for amount of radioactive material in each organ by auto gamma counter. Specifically, organs are harvested, weighed and transferred to polypropylene tubes. The tubes are placed in a calibrated Wizard2 γ-counter (PerkinElmer, Shelton, Conn.) and counted for three minutes (204-274 keV). A standard consisting of one-twentieth of the injection volume is counted with each time point. The background is automatically subtracted from the counts. The standard is also used for decay correction. % ID/g is calculated for each organ collected.
# [3] = Side by side biodistribution of ^203Pb- and ^212Pb-DOTAMTATE in CD-1 mice (FIG. 32); format: in vivo; conditions: female CD-1 mice, 10 μCi iv, 4 hr and 24 hours
# Method: Female CD-1 mice (˜20 g) are injected with a single dose of ^203Pb-DOTAMTATE or ^212Pb-DOTAMTATE. Specifically, 10 μCi of ^203Pb-DOTAMTATE or ^212Pb-DOTAMTATE is diluted in saline and 100 μl is administered to the mice via intravenous injection. The animals are sacrificed at predetermined time points of 4 hr and 24 hours post drug injection. Tissues are collected from each animal and evaluated for amount of radioactive material in each organ by auto gamma counter. Specifically, organs are harvested, weighed and transferred to 12×55 mm polypropylene tubes. The tubes are placed in a calibrated Wizard2 γ-counter (PerkinElmer, Shelton, Conn.) and counted for three minutes (204-274 keV). A standard consisting of one-twentieth of the injection volume is counted with each time point. The background is automatically subtracted from the counts. The standard is also used for decay correction. % ID/g is calculated for each organ collected, wherein “% ID” means percent injection dosage.
# [4] = Dosimetry and bio-distribution of ^203Pb-DOTAMTATE in patients with somatostatin expressing neuroendocrine tumors (SPECT-CT); format: in vivo, human; conditions: human, in vivo
# Method: Total of 6 patients are enrolled in the first-in-human open-label, single-dose, dosimetry and bio-distribution of ^203Pb-DOTAMTATE.
# All patients (1 female and 5 male) receive an average dose of 4.94 (4.66-5.26) mCi of ^203Pb-DOTAM-TATE and undergo 1 hour, 4 hour, 24 hour and 48 hour post injection SPECT-CT scans. Ethnicity of all 6 patients is Caucasian.
# Pharmacokinetic data from ^203Pb-DOTAMTATE imaging are used to calculate the absorbed dose from ^203Pb-DOTAMTATE imaging. The data is then extrapolated to calculate the expected tissue absorbed doses following the administration of ^212Pb-DOTAMTATE for future Targeted Alpha particle Therapy (TAT).
# [5] = Radiochemical stability by radio-HPLC after labeling, incubation in PBS buffer; conditions: room temperature
# in vivo = test: in vivo; set-up: species or system mice
# Method: ^212Pb-DOTATOC is prepared based on activity needed at time of injection. 4.1 ng of peptide per 10 μCi of ^212Pb into a tube is added. The mixture is incubated for 10 minutes at 50° C. with shaking. ITLC (Instant thin layer chromatography) is used to verify that chelation is >95%. 100 μl of ^212Pb-DOTATOC is intravenously injected into the tail of each mouse. An auto gamma counter is used to determine the counts of each organ and control tube.
# [6] = female, CD-1, mouse, iv, 10 uCi, total radioactivity
compound,measurement,setting,value
"C[C@@H](O)[C@H](NC(=O)[C@@H]1CSSC[C@H](NC(=O)[C@@H](Cc2ccccc2)NC(=O)CN2CCN(CC(N)=O)CCN(CC(N)=O)CCN(CC(N)=O)CC2)C(=O)N[C@@H](Cc2ccc(O)cc2)C(=O)N[C@H](Cc2c[nH]c3ccccc23)C(=O)N[C@@H](CCCCN)C(=O)N[C@@H]([C@@H](C)O)C(=O)N1)C(=O)O [^203Pb-DOTAMTATE, ((4R,7S,10S,13R,16S,19R)-13-((1H-indol-3-yl)methyl)-10-(4-aminobutyl)-16-(4-hydroxybenzyl)-7-((R)-1-hydroxyethyl)-6,9,12,15,18-pentaoxo-19-((R)-3-phenyl-2-(2-(4,7,10-tris(2-amino-2-oxoethyl)-1,4,7,10-tetraazacyclododecan-1-yl)acetamido)propanamido)-1,2-dithia-5,8,11,14,17-pentaazacycloicosane-4-carbonyl)-L-threonine chelated to M, metal not drawn]",tissue uptake at 4 h,[1]; kidney retention,9.79 ± 2.9 %ID/g
same,tissue uptake at 4 h,[1]; retention in other organs (than kidneys),< 2 %ID/g
same,organ uptake,[2],high initial uptake of the drug in the pancreas and kidneys that continues to decrease over time
same,organ uptake compared with ^212Pb-DOTAMTATE in all critical organs,[3],not significantly different
same,"absorbed dose, kidneys, average, for ^212Pb",[4],19 mGy/MBq
same,"absorbed dose, liver, average, for ^212Pb",[4],17 mGy/MBq
same,dose to bone marrow,[4],1.6 Gy
same,dose to heart wall,[4],3.7 Gy
same,dose to lungs,[4],2.5 Gy
same,dose to osteogenic cells,[4],0.5 Gy
same,dose to spleen,[4],31 Gy
same,"radiochemical stability (radiochemical yield, no free ^203Pb peak in radio-HPLC)",[5]; up to at least 24 h post-labeling,≥ 98%
"C[C@@H](O)[C@H](NC(=O)[C@@H]1CSSC[C@H](NC(=O)[C@@H](Cc2ccccc2)NC(=S)Nc2ccc(C[C@H]3CN(CC(N)=O)CCN(CC(N)=O)CCN(CC(N)=O)CCN3CC(N)=O)cc2)C(=O)N[C@@H](Cc2ccc(O)cc2)C(=O)N[C@H](Cc2c[nH]c3ccccc23)C(=O)N[C@@H](CCCCN)C(=O)N[C@@H]([C@@H](C)O)C(=O)N1)C(=O)O [^203Pb-TCMCTATE, ((4R,7S,10S,13R,16S,19R)-13-((1H-indol-3-yl)methyl)-10-(4-aminobutyl)-16-(4-hydroxybenzyl)-7-((R)-1-hydroxyethyl)-6,9,12,15,18-pentaoxo-19-((R)-3-phenyl-2-(3-(4-(((S)-1,4,7,10-tetrakis(2-amino-2-oxoethyl)-1,4,7,10-tetraazacyclododecan-2-yl)methyl)phenyl)thioureido)propanamido)-1,2-dithia-5,8,11,14,17-pentaazacycloicosane-4-carbonyl)-L-threonine chelated to M, metal not drawn]",tissue uptake at 4 h,"[1]; non-tumor bearing CD-1 mice, 4 h post-injection, read-out: kidney retention",23.5 ± 1.54 %ID/g
same,tissue uptake at 4 h,"[1]; non-tumor bearing CD-1 mice, 4 h post-injection, read-out: retention in other organs (than kidneys)",< 2 %ID/g
same,radiochemical stability (radio-HPLC),[5]; up to 18 h post-labeling,≥ 96%
"C[C@@H](O)[C@@H]1NC(=O)[C@H](CCCCN)NC(=O)[C@@H](Cc2c[nH]c3ccccc23)NC(=O)[C@H](Cc2ccc(O)cc2)NC(=O)[C@@H](NC(=O)[C@@H](Cc2ccccc2)NC(=O)CN2CCN(CC(=O)O)CCN(CC(=O)O)CCN(CC(=O)O)CC2)CSSC[C@@H](C(=O)N[C@H](CO)[C@@H](C)O)NC1=O [^212Pb-DOTATOC, metal not drawn]",tissue uptake at 0.5 h,in vivo; [6],19 %ID/g
same,tissue uptake at 4 h,in vivo; [6],22 %ID/g
same,drug in all other organs,in vivo; mouse,nearly undetectable
